How the values were obtained:
Assay type in all cases: cell-based
[1] = test system: P. aeruginosa strains; experiment: agar disc-diffusion assay, panel of 25 strains; conditions: panel of 25 P. aeruginosa strains, in words
Method: (§1) Overnight P. aeruginosa cultures grown in CAA medium were equalized till OD595=1.0 in CAA and diluted 100×. Sterile cotton swab was briefly submerged in diluted microbial suspension, removing the excess of liquid by pressing it against the container wall. The swab was used for evenly streaking bacteria on plates containing growth medium with CAA solid agar (1.5%). 6 mm diameter sterile Whatman discs were placed on soft-agar and 0.3-30 μg of chimeric pyocins were spotted to paper disks. The plates were incubated overnight at 37° C. and bacteriocin inhibition zones were observed.
(§2) Next, all 25 P. aeruginosa strains were subjected to agar disc-diffusion assay by spotting different amounts of purified pyocin S5 (0.3 μg, 3 μg and 30 μg) on bacteria lawns. Six P. aeruginosa strains were resistant to pyocin S5. Four of these six strains were pyocin S5 and immunity protein-encoding strains—PA14, PAO1, […] and NCTC 13921. Two cystic fibrosis isolates, 12-35708 and 12-29165 were also completely resistant to pyocin S5, despite the absence of S5, or S5 immunity protein coding genes. […] Turbid inhibition zones were detected when 3 μg and 30 μg of S5 were spotted on the lawn of these strains (Table 1, FIG. 3).

[2] = test system: P. aeruginosa BI80; experiment: agar disc-diffusion assay; conditions: strain BI80; 0.3, 3 and 30 μg of protein spotted on discs on CAA agar lawn, overnight
Method: as §1, §2

[3] = test system: P. aeruginosa 13-18499; experiment: agar disc-diffusion assay; conditions: strain 13-18499; 0.3, 3 and 30 μg of protein spotted on discs on CAA agar lawn, overnight
Method: as §1, §2

[4] = test system: P. aeruginosa HP52; experiment: agar disc-diffusion assay; conditions: strain HP52; 0.3, 3 and 30 μg of protein spotted on discs on CAA agar lawn, overnight
Method: as §1, §2

[5] = test system: P. aeruginosa ATCC 29260; experiment: agar disc-diffusion assay; conditions: strain ATCC 29260; 0.3, 3 and 30 μg of protein spotted on discs on CAA agar lawn, overnight
Method: as §1, §2

[6] = test system: P. aeruginosa Pr335; experiment: agar disc-diffusion assay; conditions: strain Pr335; 0.3, 3 and 30 μg of protein spotted on discs on CAA agar lawn, overnight
Method: as §1, §2

[7] = test system: P. aeruginosa PAO1; experiment: agar disc-diffusion assay; conditions: strain PAO1; 0.3, 3 and 30 μg of protein spotted on discs on CAA agar lawn, overnight
Method: as §1, §2

[8] = test system: P. aeruginosa HP7; experiment: agar disc-diffusion assay; conditions: strain HP7; 0.3, 3 and 30 μg of protein spotted on discs on CAA agar lawn, overnight
Method: as §1, §2

[9] = test system: P. aeruginosa HP1; experiment: agar disc-diffusion assay; conditions: strain HP1; 0.3, 3 and 30 μg of protein spotted on discs on CAA agar lawn, overnight
Method: as §1, §2

[10] = test system: P. aeruginosa UR78; experiment: agar disc-diffusion assay; conditions: strain UR78; 0.3, 3 and 30 μg of protein spotted on discs on CAA agar lawn, overnight
Method: as §1, §2

[11] = test system: P. aeruginosa BL77; experiment: agar disc-diffusion assay; conditions: strain BL77; 0.3, 3 and 30 μg of protein spotted on discs on CAA agar lawn, overnight
Method: as §1, §2

[12] = test system: P. aeruginosa Boston 41501 (ATCC 27853); experiment: agar disc-diffusion assay; conditions: strain Boston; 0.3, 3 and 30 μg of protein spotted on discs on CAA agar lawn, overnight
Method: as §1, §2

[13] = test system: P. aeruginosa HP6; experiment: agar disc-diffusion assay; conditions: strain HP6; 0.3, 3 and 30 μg of protein spotted on discs on CAA agar lawn, overnight
Method: as §1, §2

[14] = test system: P. aeruginosa A19; experiment: agar disc-diffusion assay; conditions: strain A19; 0.3, 3 and 30 μg of protein spotted on discs on CAA agar lawn, overnight
Method: as §1, §2

[15] = test system: P. aeruginosa NCTC 13921; experiment: agar disc-diffusion assay; conditions: strain NCTC 13921; 0.3, 3 and 30 μg of protein spotted on discs on CAA agar lawn, overnight
Method: as §1, §2

[16] = test system: P. aeruginosa HP41; experiment: agar disc-diffusion assay; conditions: strain HP41; 0.3, 3 and 30 μg of protein spotted on discs on CAA agar lawn, overnight
Method: as §1, §2

[17] = test system: P. aeruginosa HP40; experiment: agar disc-diffusion assay; conditions: strain HP40; 0.3, 3 and 30 μg of protein spotted on discs on CAA agar lawn, overnight
Method: as §1, §2

[18] = test system: P. aeruginosa Bu002; experiment: agar disc-diffusion assay; conditions: strain Bu002; 0.3, 3 and 30 μg of protein spotted on discs on CAA agar lawn, overnight
Method: as §1, §2

[19] = test system: P. aeruginosa PA14; experiment: agar disc-diffusion assay; conditions: strain PA14; 0.3, 3 and 30 μg of protein spotted on discs on CAA agar lawn, overnight
Method: as §1, §2

[20] = test system: P. aeruginosa HP75; experiment: agar disc-diffusion assay; conditions: strain HP75; 0.3, 3 and 30 μg of protein spotted on discs on CAA agar lawn, overnight
Method: as §1, §2

[21] = test system: P. aeruginosa NCTC 13437; experiment: agar disc-diffusion assay; conditions: strain NCTC 13437; 0.3, 3 and 30 μg of protein spotted on discs on CAA agar lawn, overnight
Method: as §1, §2

[22] = test system: P. aeruginosa EY76; experiment: agar disc-diffusion assay; conditions: strain EY76; 0.3, 3 and 30 μg of protein spotted on discs on CAA agar lawn, overnight
Method: as §1, §2

[23] = test system: P. aeruginosa BR79; experiment: agar disc-diffusion assay; conditions: strain BR79; 0.3, 3 and 30 μg of protein spotted on discs on CAA agar lawn, overnight
Method: as §1, §2

B1: S5-Pflu618: chimeric bacteriocin SEQ ID NO: 21: pyocin S5 first segment fused to P. fluorescens Pflu618 killing domain (protein)
chain: MSNDNEVPGSMVIVAQGPDDQYAYEVPPIDSAAVAGNMFGDLIQREIYLQKNIYYPVRSIFEQGTKEKKEINKKVSDQVDGLLKQITQGKREATRQERVDVMSAVLHKMESDLEGYKKTFTKGPFIDYEKQSSLSIYEAWVKIWEKNSWEERKKYPFQQLVRDELERAVAYYKQDSLSEAVKVLRQELNKQKALKEKEDLSQLERDYRTRKANLEMKVQSELDQAGSALPPLVSPTPEQWLERATRLVTQAIADKKQLQTTNNTLIKNSPTPLEKQKAIYNGELLVDEIASLQARLVKLNAETTRRRTEAEAEAKRIDDYKRAVAFVADANKYILEKYGANLHQVVMDLQKDISGKKIRSYAEAMQTFEAVRTNPNARLSPQDTRAVVDALNALDKATYMDSVNKLAKGFGVTGKIVQAHSVIEKTVIGFRDGNWKPLILELESIALGAGAGAAVATLLAVFSPGFAASAIGIVAVGVAIATIASLLNADNVEKINVFISDHLETALKEQR
modifications: S5-Pflu618
- activity spectrum / profile in agar disc diffusion assay [1]: weaker and less broad activity in comparison to pyocin S5
- Activity in agar disc-diffusion assay [2]: * (activity detected only with 30 μg of protein)
- Activity in agar disc-diffusion assay [3]: * (activity detected only with 30 μg of protein)
- Activity in agar disc-diffusion assay [4]: * (activity detected only with 30 μg of protein)
- Activity in agar disc-diffusion assay [5]: * (activity detected only with 30 μg of protein)
- Activity in agar disc-diffusion assay [6]: ** (activity detected with 3 μg of protein)
- Activity in agar disc-diffusion assay [7]: ** (activity detected with 3 μg of protein)
- Activity in agar disc-diffusion assay [8]: ** (activity detected with 3 μg of protein)
- Activity in agar disc-diffusion assay [9]: ** (activity detected with 3 μg of protein)
- Activity in agar disc-diffusion assay [10]: * (activity detected only with 30 μg of protein)
- Activity in agar disc-diffusion assay [11]: * (activity detected only with 30 μg of protein)
- Activity in agar disc-diffusion assay [12]: ** (activity detected with 3 μg of protein)
- Activity in agar disc-diffusion assay [13]: * (activity detected only with 30 μg of protein)
- Activity in agar disc-diffusion assay [14]: *** (activity detected with 0.3 μg of protein)
- Activity in agar disc-diffusion assay [15]: * (activity detected only with 30 μg of protein)
- Activity in agar disc-diffusion assay [16]: ** (activity detected with 3 μg of protein)
- Activity in agar disc-diffusion assay [17]: ** (activity detected with 3 μg of protein)
- Activity in agar disc-diffusion assay [18]: ** (activity detected with 3 μg of protein)

B2: S5-Pflu373: chimeric bacteriocin SEQ ID NO: 13: pyocin S5 first segment fused to P. fluorescens Pflu373 killing domain (protein)
chain: MSNDNEVPGSMVIVAQGPDDQYAYEVPPIDSAAVAGNMFGDLIQREIYLQKNIYYPVRSIFEQGTKEKKEINKKVSDQVDGLLKQITQGKREATRQERVDVMSAVLHKMESDLEGYKKTFTKGPFIDYEKQSSLSIYEAWVKIWEKNSWEERKKYPFQQLVRDELERAVAYYKQDSLSEAVKVLRQELNKQKALKEKEDLSQLERDYRTRKANLEMKVQSELDQAGSALPPLVSPTPEQWLERATRLVTQAIADKKQLQTTNNTLIKNSPTPLEKQKAIYNGELLVDEIASLQARLVKLNAETTRRRTEAEEQAKAEEEIKGAIKFTADFYKEIGEKYGAQMTASATDLAETAKGKTLRSAEEALKAFDQYKDHLDKKFSAADRAAIVNALDSLDRAELAKNLNLFAKGFGYTSKAFDVYDLVEEVKKSYASGDWNNTALKVETLFAGSAATGLIAFAFGVTVSTPVGIVAFALIMALVSAYIDDAHVKQFNDALDAILP
modifications: S5-Pflu373
- activity spectrum / profile in agar disc diffusion assay [1]: good activity profile, similar to S5-Pflu095
- Activity in agar disc-diffusion assay [2]: *** (activity detected with 0.3 μg of protein)
- Activity in agar disc-diffusion assay [3]: ** (activity detected with 3 μg of protein)
- Activity in agar disc-diffusion assay [4]: ** (activity detected with 3 μg of protein)
- Activity in agar disc-diffusion assay [5]: *** (activity detected with 0.3 μg of protein)
- Activity in agar disc-diffusion assay [6]: *** (activity detected with 0.3 μg of protein)
- Activity in agar disc-diffusion assay [7]: *** (activity detected with 0.3 μg of protein)
- Activity in agar disc-diffusion assay [19]: ** (activity detected with 3 μg of protein)
- Activity in agar disc-diffusion assay [20]: ** (activity detected with 3 μg of protein)
- Activity in agar disc-diffusion assay [8]: *** (activity detected with 0.3 μg of protein)
- Activity in agar disc-diffusion assay [21]: * (activity detected only with 30 μg of protein)
- Activity in agar disc-diffusion assay [9]: *** (activity detected with 0.3 μg of protein)
- Activity in agar disc-diffusion assay [22]: *** (activity detected with 0.3 μg of protein)
- Activity in agar disc-diffusion assay [10]: *** (activity detected with 0.3 μg of protein)
- Activity in agar disc-diffusion assay [23]: ** (activity detected with 3 μg of protein)
- Activity in agar disc-diffusion assay [11]: ** (activity detected with 3 μg of protein)
- Activity in agar disc-diffusion assay [12]: *** (activity detected with 0.3 μg of protein)
- Activity in agar disc-diffusion assay [13]: *** (activity detected with 0.3 μg of protein)
- Activity in agar disc-diffusion assay [14]: *** (activity detected with 0.3 μg of protein)
- Activity in agar disc-diffusion assay [15]: ** (activity detected with 3 μg of protein)
- Activity in agar disc-diffusion assay [16]: *** (activity detected with 0.3 μg of protein)
- Activity in agar disc-diffusion assay [17]: *** (activity detected with 0.3 μg of protein)
- Activity in agar disc-diffusion assay [18]: *** (activity detected with 0.3 μg of protein)

From patent US20250188133A1, “CHIMERIC BACTERIOCINS AND METHOD FOR THE CONTROL OF PSEUDOMONAS” (priority 2022, published 2025)
